In the test the target is T1, HLA-A*02:01 (human).
T1 construct: the format of the assay is not described
The test is described as follows: ELISA-based peptide-MHC binding assay (FIG. 5). Background: ELISA stands for enzyme-linked immunosorbent assay.

Consider KIQEILTQV [IGF2BP3-001 peptide KIQEILTQV (SEQ ID NO: 1)], for which the binding result is reported as “binds”.

The record behind these values is patent US12466878 (IMMATICS BIOTECHNOLOGIES, dated 2025).
